{
  "source": "paper PMC9638898",
  "system": "en-10C-R4 (engrailed homeodomain-ligase 10C-tetra-arginine) (artificial fusion)",
  "experiment": "fluorescence anisotropy",
  "settings": "20 mM HEPES pH 7.5, 150 mM NaCl, 100 uM 2-mercaptoethanol, 120 uM ZnCl2, 100 ug/ml BSA, 24 C, 90 min",
  "data": [
    {"sequence": "GUUCAGAGUUCUACAGUCACUAACGUUCGGGGAACCCAGGUGUUGGUCUUUGACGUAGAGUAUAAGA / TGGGTTCCCCGAACGT [RNA/DNA duplex (ligated product RNA + FAM-DNA splint #2)]", "values": [
      {"measurement": "Kd", "result": 460, "unit": "nM"}
    ]}
  ]
}
